Source: US20240252613A1 (ACHELOIS BIOPHARMA, published 2024)

Assays:
[1] = target: T1, OX40L on transfected S293 cells (Mus musculus (Mouse), UniProt P43488 1-198); assay: FACS, dye-labeled MVP on transfected S293 cells
T1 construct: also called OX40 ligand
T1 sequence: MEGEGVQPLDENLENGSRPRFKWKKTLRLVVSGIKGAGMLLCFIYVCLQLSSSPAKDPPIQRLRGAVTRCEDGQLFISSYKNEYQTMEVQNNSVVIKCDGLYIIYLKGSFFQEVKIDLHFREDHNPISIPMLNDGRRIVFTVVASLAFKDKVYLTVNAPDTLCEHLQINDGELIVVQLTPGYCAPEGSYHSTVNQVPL

[2] = target: T1, OX40L on transfected S293 cells; assay: FACS, unlabeled MVP on transfected cells, detected with antibody
[3] = target: T2, 4-1BBL on transfected S293 cells (Mus musculus (Mouse), UniProt P41274 1-309); assay: FACS, dye-labeled MVP on transfected S293 cells
T2 construct: also called 4-1BB ligand
T2 sequence: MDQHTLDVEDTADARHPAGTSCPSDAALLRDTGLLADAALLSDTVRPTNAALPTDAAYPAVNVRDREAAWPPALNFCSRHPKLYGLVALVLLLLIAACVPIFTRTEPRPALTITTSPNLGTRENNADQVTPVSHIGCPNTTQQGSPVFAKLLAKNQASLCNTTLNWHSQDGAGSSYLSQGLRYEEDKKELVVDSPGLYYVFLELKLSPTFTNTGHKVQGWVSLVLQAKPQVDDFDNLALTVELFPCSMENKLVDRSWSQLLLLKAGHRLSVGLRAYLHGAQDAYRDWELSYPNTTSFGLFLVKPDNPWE

[4] = target: T3, GITR Ligand on transfected S293 cells (Mus musculus (Mouse), UniProt Q7TS55 1-173); assay: FACS, dye-labeled MVP on transfected S293 cells
T3 sequence: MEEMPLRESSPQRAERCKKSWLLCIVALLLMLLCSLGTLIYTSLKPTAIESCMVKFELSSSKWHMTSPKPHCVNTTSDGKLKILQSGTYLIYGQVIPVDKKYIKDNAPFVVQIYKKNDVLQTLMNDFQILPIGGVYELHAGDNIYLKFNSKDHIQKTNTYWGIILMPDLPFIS

[5] = target: T3, GITR Ligand on transfected S293 cells; assay: FACS, unlabeled MVP on transfected cells, detected with antibody
[6] = target: T4, ICOS ligand on transfected S293 cells (Mus musculus (Mouse), UniProt Q9JHJ8 47-322); assay: FACS, dye-labeled MVP on transfected S293 cells
T4 sequence: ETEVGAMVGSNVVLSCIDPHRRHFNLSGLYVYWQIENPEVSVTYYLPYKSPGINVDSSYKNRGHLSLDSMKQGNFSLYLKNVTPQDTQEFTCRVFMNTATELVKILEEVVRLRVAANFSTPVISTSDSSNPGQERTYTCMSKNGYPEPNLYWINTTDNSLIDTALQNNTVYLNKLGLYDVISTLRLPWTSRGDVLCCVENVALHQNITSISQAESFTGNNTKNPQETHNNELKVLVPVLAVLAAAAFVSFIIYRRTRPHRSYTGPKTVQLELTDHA

[7] = target: T5, human TIM-3 on transfected S293 cells (human, UniProt Q8TDQ0 22-301); assay: FACS, dye-labeled MVP on transfected S293 cells
T5 construct: also called HAVCR2
T5 sequence: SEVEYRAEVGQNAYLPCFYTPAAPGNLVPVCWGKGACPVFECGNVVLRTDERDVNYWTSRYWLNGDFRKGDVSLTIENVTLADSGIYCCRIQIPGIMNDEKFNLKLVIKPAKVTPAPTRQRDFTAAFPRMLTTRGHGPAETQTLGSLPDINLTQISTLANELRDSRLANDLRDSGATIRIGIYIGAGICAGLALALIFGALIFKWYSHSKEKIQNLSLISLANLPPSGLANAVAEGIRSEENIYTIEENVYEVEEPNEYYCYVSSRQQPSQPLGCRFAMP

[8] = target: T5, human TIM-3 on transfected S293 cells; assay: FACS, unlabeled MVP on transfected cells, detected with antibody
[9] = target: T6, CD2 on transfected S293 cells (Mus musculus (Mouse), UniProt P08920 23-344); assay: as above
T6 sequence: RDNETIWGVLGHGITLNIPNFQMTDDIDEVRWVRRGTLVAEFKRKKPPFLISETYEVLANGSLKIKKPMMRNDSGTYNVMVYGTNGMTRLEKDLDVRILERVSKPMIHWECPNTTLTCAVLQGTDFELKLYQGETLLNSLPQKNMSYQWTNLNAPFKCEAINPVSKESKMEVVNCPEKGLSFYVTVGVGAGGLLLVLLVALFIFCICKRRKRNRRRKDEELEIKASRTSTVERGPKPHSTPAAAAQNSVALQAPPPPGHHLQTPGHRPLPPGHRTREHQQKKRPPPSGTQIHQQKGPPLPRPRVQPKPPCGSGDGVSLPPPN

B1: OX40-MVP (other)
chain: VTARRLNCVKHTYPSGHKCCRECQPGHGMVSRCDHTRDTLCHPCETGFYNEAVNYDTCKQCTQCNHRSGSELKQNCTPTQDTVCRCRPGTQPRQDSGYKLGVDCVPCPPGHFSPGNNQACKPWTNCTLSGKQTRHPASDSLDAVCEDRSLLATLLWETQRPTFRPTTVQSTTVWPRTSELPSPPTLVTPEGPADIIQADGWMCHASKWVTTCDFRWYGPKYITHSIRSFTPSVEQCKESIEQTKQGTWLNPGFPPQSCGYATVTDAEAVIVQVTPHHVLVDEYTGEWVDSQFINGKCSNYICPTVHNSTTWHSDYKVKGLCDSNLGMLDSDLHLSSKAQVFEHPHIQDAASQLPDDESLFFGDTGLSKNPIELVEGWFSSWKSSIASFFFIIGLIIGLFLVLRVGIHLCIKLKHTKKRQIYTDIEMNRLGK
notes: also called OX40-MVPs; Murine OX40-MVP
[1]
  fluorescence shift relative to control MVPs: ≥ 2 fold
[2]
  staining shift of target+ over target- cells: 1 log

B2: 4-1BB-MVP (other)
chain: VQNSCDNCQPGTFCRKYNPVCKSCPPSTFSSIGGQPNCNICRVCAGYFRFKKFCSSTHNAECECIEGFHCLGPQCTRCEKDCRPGQELTKQGCKTCSLGTFNDQNGTGVCRPWTNCSLDGRSVLKTGTTEKDVVCGPPVVSFSPSTTISVTPEGGPGGHSLQVLTDIIQADGWMCHASKWVTTCDFRWYGPKYITHSIRSFTPSVEQCKESIEQTKQGTWLNPGFPPQSCGYATVTDAEAVIVQVTPHHVLVDEYTGEWVDSQFINGKCSNYICPTVHNSTTWHSDYKVKGLCDSNLGMLDSDLHLSSKAQVFEHPHIQDAASQLPDDESLFFGDTGLSKNPIELVEGWFSSWKSSIASFFFIIGLIIGLFLVLRVGIHLCIKLKHTKKRQIYTDIEMNRLGK
notes: also called 4-1BB-MVPs; Murine 4-1BB-MVP
[3]
  fluorescence shift relative to control MVPs: ≥ 2 fold

B3: GITR-MVP (other)
chain: QPSVVEEPGCGPGKVQNGSGNNTRCCSLYAPGKEDCPKERCICVTPEYHCGDPQCKICKHYPCQPGQRVESQGDIVFGFRCVACAMGTFSAGRDGHCRLWTNCSQFGFLTMFPGNKTHNAVCIPEPLPTEQYGHIIQADGWMCHASKWVTTCDFRWYGPKYITHSIRSFTPSVEQCKESIEQTKQGTWLNPGFPPQSCGYATVTDAEAVIVQVTPHHVLVDEYTGEWVDSQFINGKCSNYICPTVHNSTTWHSDYKVKGLCDSNLGMLDSDLHLSSKAQVFEHPHIQDAASQLPDDESLFFGDTGLSKNPIELVEGWFSSWKSSIASFFFIIGLIIGLFLVLRVGIHLCIKLKHTKKRQIYTDIEMNRLGK
notes: also called GITR-MVPs; Murine GITR-MVP
[4]
  fluorescence shift relative to control MVPs: ≥ 2 log
[5]
  staining shift of target+ over target- cells: 1 log

B4: ICOS-MVP (other)
chain: EINGSADHRMFSFHNGGVQISCKYPETVQQLKMRLFREREVLCELTKTKGSGNAVSIKNPMLCLYHLSNNSVSFFLNNPDSSQGSYYFCSLSIFDPPPFQERNLSGGYLHIYESQLCCQLKLDIIQADGWMCHASKWVTTCDFRWYGPKYITHSIRSFTPSVEQCKESIEQTKQGTWLNPGFPPQSCGYATVTDAEAVIVQVTPHHVLVDEYTGEWVDSQFINGKCSNYICPTVHNSTTWHSDYKVKGLCDSNLGMLDSDLHLSSKAQVFEHPHIQDAASQLPDDESLFFGDTGLSKNPIELVEGWFSSWKSSIASFFFIIGLIIGLFLVLRVGIHLCIKLKHTKKRQIYTDIEMNRLGK
notes: also called ICOS-MVPs; Murine ICOS-MVP
[6]
  fluorescence shift relative to control MVPs: ~2 fold

B5: human Ceacam1-MVP (other)
chain: QLTTESMPFNVAEGKEVLLLVHNLPQQLFGYSWYKGERVDGNRQIVGYAIGTQQATPGPANSGRETIYPNASLLIQNVTQNDTGFYTLQVIKSDLVNEEATGQFHVYPELPKPSISSNNSNPVEDKDAVAFTCEPETQDTTYLWWINNQSLPVSPRLQLSNGNRTLTLLSVTRNDTGPYECEIQNPVSANRSDPVTLNVTYGPDTPTISPSDTYYRPGANLSLSCYAASNPPAQYSWLINGTFQQSTQELFIPNITVNNSGSYTCHANNSVTGCNRTTVKTIIVTELSPVVAKPQIKASKTTVTGDKDSVNLTCSTNDTGISIRWFFKNQSLPSSERMKLSQGNTTLSINPVKREDAGTYWCEVFNPISKNQSDPIMLNVNYNALPQENGLSPGIIQADGWMCHASKWVTTCDFRWYGPKYITHSIRSFTPSVEQCKESIEQTKQGTWLNPGFPPQSCGYATVTDAEAVIVQVTPHHVLVDEYTGEWVDSQFINGKCSNYICPTVHNSTTWHSDYKVKGLCDSNLGMLDSDLHLSSKAQVFEHPHIQDAASQLPDDESLFFGDTGLSKNPIELVEGWFSSWKSSIASFFFIIGLIIGLFLVLRVGIHLCIKLKHTKKRQIYTDIEMNRLGK
notes: also called Ceacam1-MVPs
[7]
  fluorescence shift relative to control MVPs: ~2 fold
[8]
  staining shift of target+ over target- cells: ~2 fold

B6: CD48-MVP (other)
chain: FQGHSIPDINATTGSNVTLKIHKDPLGPYKRITWLHTKNQKILEYNYNSTKTIFESEFKGRVYLEENNGALHISNVRKEDKGTYYMRVLRETENELKITLEVFDPVPKPSIEINKTEASTDSCHLRLSCEVKDQHVDYTWYESSGPFPKKSPGYVLDLIVTPQNKSTFYTCQVSNPVSSKNDTVYFTLPCDLARSSGVCWTATWLVVTTLIIHRILLTIIQADGWMCHASKWVTTCDFRWYGPKYITHSIRSFTPSVEQCKESIEQTKQGTWLNPGFPPQSCGYATVTDAEAVIVQVTPHHVLVDEYTGEWVDSQFINGKCSNYICPTVHNSTTWHSDYKVKGLCDSNLGMLDSDLHLSSKAQVFEHPHIQDAASQLPDDESLFFGDTGLSKNPIELVEGWFSSWKSSIASFFFIIGLIIGLFLVLRVGIHLCIKLKHTKKRQIYTDIEMNRLGK
notes: also called CD48-MVPs; Murine CD48-MVP
[9]
  staining shift of target+ over target- cells: > 1 log
